In patent publication US20030054439A1 (Amgen, published 2003):

Biological target: TNFα from R&D Systems (L929 cytotoxicity assay)
Test: cell-based or functional assay

B1: sTNFR-I 3D/N105 (receptor)
chain: DSVCPQGKYIHPQNNSICCTKCHKGTYLYNDCPGPGQDTDCRECESGSFTASENHLRHCLSCSKCRKEMGQVEISSCTVDRDTVCGCRKNQYRHYWSENLFQCFNCSLCLNGTVHLSCQEKQNTVCT
- ED50 (ng/mL), L929 cytotoxicity assay, run #2, single data point: 413 ng/mL
